Columns and labels:
human HER3 ECD = target: T1, human HER3 ECD (human, UniProt P21860 20-643); test: SPR (Biacore T100), antibody captured by anti-Fc gamma, HER3 ECD as analyte, 25 °C, 1:1 Langmuir model
T1 construct: also called hHER3-ECD; hu-HER3-ECD
Experimental: After conjugation, anti-HER3 antibodies were injected at 25° C. at a flow rate of 5 μL/min, followed by a dilution series (0 nM to 1000 nM) of human HER3 ECD at 30 μL/min. As running buffer for the binding experiment PBS/0.1% BSA was used. The chip was then regenerated with a 60 s pulse of 10 mM glycine-HCl, pH 2.0 solution.
Calculation of thermodynamic parameters (KD, binding constant to HER3) were calculated using a Langmuir 1:1 binding model.

[1] = target: T2, Soluble human HER3 extracellular domain fused to Streptavidin Binding Protein (SBP) (human, UniProt P21860 20-643); test: ratio of the concentration by HER3-ECD ELISA to the concentration by IgG ELISA
T2 construct: It was used as HEK293 supernatant captured on streptavidin plates; also called SBP-HER3

[2] = target: T2, Soluble human HER3 extracellular domain …; test: ELISA, SBP-HER3 ECD captured on streptavidin plate, anti-human IgG-HRP detection
Experimental: Soluble human HER3 extracellular domain fused to Streptavidin Binding Protein (SBP) was captured on a streptavidin plate. […] For the standard coating, SBP-HER3 containing HEK293 supernatant was diluted (between 1:15 and 1:40) and incubated overnight at 2-80 C (25 μl per well). Intensive washing of the microtiter plate was necessary to remove remaining unbound SBP-HER3.
Antibodies were tested either undiluted or using a 12-step-dilution. 12.5 μl per well of each sample was incubated for 90 min at room temperature.

[3] = target: HER3 on MCF7, FaDu and Mel-Juso tumor cells (human) (UniProt P21860); test: cell-based or functional assay

Kd (human HER3 ECD) [nM] | activity (ratio binding to hu_HER3-ECD/IgG) [1] | hu_HER3-ECD-ELISA c [2] [µg/mL] | pHER3 % inhibition [0.1 µg/ml], MCF7 cells [3] [%] | pHER3 % inhibition [1.0 µg/ml], MCF7 cells [3] [%] | Binder
2 | 0.74 | 583 | – | – | Mab 205.10.1 (antibody, V domains shown, Humanized antibody; Only the variable domains are tied to it; The assays detected it with anti-human IgG or captured it with anti-Fc gamma) VH: QVQLVQSGAEVKKPGASVKVSCKASGYTFRSSYISWVRQAPGQGLEWMGWIYAGTGSPSYNQKLQGRVTMTTDTSTSTAYMELRSLRSDDTAVYYCARHRDYYSNSLTYWGQGTLVTVSS VL: DIVMTQSPDSLAVSLGERATINCKSSQSLLNSGNQKNYLTWYQQKPGQPPKLLIYWASTRESGVPDRFSGSGSGTDFTLTISSLQAEDVAVYYCQSDYSYPYTFGQGTKLEIK
2 | 0.83 | 505 | – | – | Mab 205.10.3 (antibody, human IgG1, V domains shown, Humanized antibody; Only the variable domains are tied to it) VH: QVQLVQSGAEVKKPGASVKVSCKASGYTFRSSYISWVRQAPGQGLEWMGWIYAGTGSPSYNQKLQGRVTMTTDTSTSTAYMELRSLRSDDTAVYYCARHRDYYSNSLTYWGQGTLVTVSS VL: DIVMTQSPDSLAVSLGERATINCKSSQSLLNSGNQKNYLTWYQQKPGQPPKLLIYWASTRESGVPDRFSGSGSGTDFTLTISSLQAEDVSIYYCQSDYSYPYTFGQGTKLEIK
– | – | – | 54 | 51 | U1-53 (antibody, from another filing, V domains shown) VH: EVQLVESGGGLVQPGGSLRLSCAASGFTFSIYSMNWVRQAPGKGLEWVSYISSSSSTIYYADSVKGRFTISRDNAKNSLYLQMNSLRDEDTAVYYCARDRGDFDAFDIWGQGTMVTVSS VL: DIQMTQSPSSLSASVGDRVTITCQASQDITNYLNWYQQKPGKAPKLLIYDASNLETGVPSRFSGSGSGTDFTFTISSLQPEDIATYNCQQCENFPITFGQGTRLEIK

From patent US20110171222A1 (Hoffmann-La Roche, published 2011)
